According to US20040053816A1 (COUNCIL OF SCIENTIFIC AND INDUSTRIAL RESEARCH, published 2004):

Target: insulin receptor (IR) of carp adipocytes (carp Catla catla)
Experiment: cell-based or functional assay

- glucose uptake by adipocyte: 2 fold
B1: Purified adipocyte insulin (Adplnsl) of the carp Catla catla (ligand)
chain 1: GIVEQCCHKPCSIFELQNYCN
chain 2: PGAPQHLCGSHLVDALYLVCGPTGFFYNPK
